From US5716622

Biological target: Stat1α (human)
Test: co-immunoprecipitation with anti-FLAG M2 from COS cells with or without EGF, blot with Stat1 antiserum

## FLAG-tagged Stat3
  amount of Stat1 coprecipitated, treated cells against untreated cells: 5 fold
